Assay results taken from publication PMC6650136, “Awakening the Sleeping Carboxylase Function of Enzymes: Engineering the Natural CO2-Binding Potential of Reductases” (Journal of the American Chemical Society, 2019).

Tested on: C=CC(=O)SCCNC(=O)CCNC(=O)[C@H](O)C(C)(C)COP(=O)(O)OP(=O)(O)OC[C@H]1O[C@@H](n2cnc3c(N)ncnc32)[C@H](O)[C@@H]1OP(=O)(O)O
Assay: purified protein
Conditions: apparent; kcat at 4.4 mM CO2, combined reduction and carboxylation
Excerpt: steady-state kinetics, Michaelis-Menten fit on PCSEN_ΔDH (propionyl-CoA synthase, reductase domain activity)

| Substance | Km [µM] | kcat [s⁻¹] |
| --- | --- | --- |
| PCSEN_ΔDH (propionyl-CoA synthase, reductase domain activity) (Erythrobacter sp. NAP1; D1302S/E1027Q) | 27 ± 3 | 1.77 ± 0.09 |
| PCSEN_ΔDH (propionyl-CoA synthase, reductase domain activity) (Erythrobacter sp. NAP1; D1302S/E1027Q/T1753M) | 26 ± 3 | 0.46 ± 0.03 |
| PCSEN_ΔDH (propionyl-CoA synthase, reductase domain activity) (Erythrobacter sp. NAP1; E1027Q) | 14 ± 2 | 7.4 ± 1.0 |
| PCSEN_ΔDH (propionyl-CoA synthase, reductase domain activity) (Erythrobacter sp. NAP1; E1027Q/T1753M) | 19.7 ± 1.2 | 6.5 ± 0.6 |
